Data as given in publication PMC3695516.

Tests used:
[1] = target: T1, chimp FOXP2 (truncated, WT) (chimpanzee, UniProt Q8MJA0 215-716); experiment: MITOMI
T1 sequence: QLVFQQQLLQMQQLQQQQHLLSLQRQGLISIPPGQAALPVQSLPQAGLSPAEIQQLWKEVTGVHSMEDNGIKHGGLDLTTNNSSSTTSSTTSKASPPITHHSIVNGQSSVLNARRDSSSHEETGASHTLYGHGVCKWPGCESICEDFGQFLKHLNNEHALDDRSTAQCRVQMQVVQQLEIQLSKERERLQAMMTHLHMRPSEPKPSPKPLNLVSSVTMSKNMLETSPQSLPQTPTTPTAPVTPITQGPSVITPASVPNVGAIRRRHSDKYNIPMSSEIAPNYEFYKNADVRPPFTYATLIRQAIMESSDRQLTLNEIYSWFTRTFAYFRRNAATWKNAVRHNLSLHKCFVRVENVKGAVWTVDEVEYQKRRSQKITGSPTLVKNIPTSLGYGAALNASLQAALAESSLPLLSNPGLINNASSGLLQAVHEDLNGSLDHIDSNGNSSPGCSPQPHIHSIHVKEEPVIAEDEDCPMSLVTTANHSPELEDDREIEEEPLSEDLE

[2] = target: T2, human FOXP2 (truncated, WT) (human, UniProt O15409 214-715); experiment: MITOMI
T2 sequence: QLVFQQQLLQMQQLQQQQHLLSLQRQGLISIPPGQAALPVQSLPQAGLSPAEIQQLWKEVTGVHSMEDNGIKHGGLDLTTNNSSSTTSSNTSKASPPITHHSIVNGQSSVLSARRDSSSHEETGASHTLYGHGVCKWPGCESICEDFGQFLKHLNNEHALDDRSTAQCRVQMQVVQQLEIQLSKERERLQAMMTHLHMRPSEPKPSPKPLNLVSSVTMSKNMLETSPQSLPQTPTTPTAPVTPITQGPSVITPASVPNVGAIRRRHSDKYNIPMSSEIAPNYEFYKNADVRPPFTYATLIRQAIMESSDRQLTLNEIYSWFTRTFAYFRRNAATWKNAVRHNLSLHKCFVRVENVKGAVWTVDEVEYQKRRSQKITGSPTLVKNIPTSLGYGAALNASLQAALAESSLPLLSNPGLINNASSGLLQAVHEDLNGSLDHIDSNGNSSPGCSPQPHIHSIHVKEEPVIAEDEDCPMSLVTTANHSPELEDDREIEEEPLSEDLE

B1: oligonucleotide #175 (dsDNA)
DNA 1: CGCCTGTTACGGCATCAGGGCTTTGGTTTGGGCGGGCTGCTTGTTTACCAATTGTCTCCGGCGGTATGAC
DNA 2: GTCATACCGCCGGAGACAATTGGTAAACAAGCAGCCCGCCCAAACCAAAGCCCTGATGCCGTAACAGGCG
B1: binds [1]; binds [2].
